Test results published in patent publication US10047131B2, “Peptides and combination of peptides for use in immunotherapy against ovarian cancer and other cancers” (immatics biotechnologies GmbH, priority 2015, dated 2018).

biological target: HLA-A*02:01 (Homo sapiens, UniProt P04439, D140Y/D185E/D98H/E176V/E277Q/G131W/G231S/I119V/I121R/I166T/I218V/L300P/L318F/N151K/N90K/P208A/P217A/Q86G/Q94H/R138H/R169H/T345S); assay: MHC binding assay (UV-ligand exchange, ELISA of exchange yield); settings: binding to HLA-A*02:01, UV-ligand exchange
Excerpt: Candidate peptides for T cell based therapies according to the present invention were further tested for their MHC binding capacity (affinity). The individual peptide-MHC complexes were produced by UV-ligand exchange, where a UV-sensitive peptide is cleaved upon UV-irradiation, and exchanged with the peptide of interest as analyzed. Only peptide candidates that can effectively bind and stabilize the peptide-receptive MHC molecules prevent dissociation of the MHC complexes. To determine the yield of the exchange reaction, an ELISA was performed based on the detection of the light chain (p2m) of stabilized MHC complexes. The assay was performed as generally described in Rodenko et al. (Rodenko et al., 2006).
96 well MAXISorp plates (NUNC) were coated over night with 2 μg/ml streptavidin in PBS at room temperature, washed 4× and blocked for 1 h at 37° C. in 2% BSA containing blocking buffer. […] Peptide-MHC monomers of the UV-exchange reaction were diluted 100 fold in blocking buffer. Samples were incubated for 1h at 37° C., washed four times, incubated with 2 μg/ml HRP conjugated anti-β2m for 1h at 37° C., washed again and detected with TMB solution that is stopped with […]. Absorption was measured at 450 nm. Candidate peptides that show a high exchange yield (preferably higher than 50%, most preferred higher than 75%) are generally preferred for a generation and production of antibodies or fragments thereof, and/or T cell receptors or fragments thereof, as they show sufficient avidity to the MHC molecules and prevent dissociation of the MHC complexes.

| Substance | Peptide exchange (MHC class I binding score, peptide exchange yield) |
| --- | --- |
| 109 (IILSILEQA; listed as Homo sapiens) [compound 109] | “++++” (≥75% = ++++) |
| 110 (FLSQVDFEL; listed as Homo sapiens) [compound 110] | “+++” (≥50 = +++) |
| 111 (YVWGFYPAEV; listed as Homo sapiens) [compound 111] | “+++” (≥50 = +++) |
| 113 (GLLPTPLFGV; listed as Homo sapiens) [compound 113] | “+++” (≥50 = +++) |
| 114 (SLVGEPILQNV; listed as Homo sapiens) [compound 114] | “++” (≥20% = ++) |
| 115 (AIAGAGILYGV; listed as Homo sapiens) [compound 115] | “++” (≥20% = ++) |
| 116 (YHIDEEVGF; listed as Homo sapiens) [compound 116] | “+” (≥10% = +) |
| 117 (ILPDGEDFLAV; listed as Homo sapiens) [compound 117] | “+++” (≥50 = +++) |
| 118 (KLIDNNINV; listed as Homo sapiens) [compound 118] | “+++” (≥50 = +++) |
| 119 (FLYIGDIVSL; listed as Homo sapiens) [compound 119] | “++++” (≥75% = ++++) |
| 120 (ALLGIPLTLV; listed as Homo sapiens) [compound 120] | “+++” (≥50 = +++) |
| 121 (GVVDPRAISVL; listed as Homo sapiens) [compound 121] | “++” (≥20% = ++) |
| 122 (FLLAEDDIYL; listed as Homo sapiens) [compound 122] | “+++” (≥50 = +++) |
| 123 (NLWDLTDASVV; listed as Homo sapiens) [compound 123] | “+++” (≥50 = +++) |
| 124 (ALYETELADA; listed as Homo sapiens) [compound 124] | “++” (≥20% = ++) |
| 125 (VQIHQVAQV; listed as Homo sapiens) [compound 125] | “+++” (≥50 = +++) |
| 126 (VLAYFLPEA; listed as Homo sapiens) [compound 126] | “++++” (≥75% = ++++) |
| 127 (KIGDEPPKV; listed as Homo sapiens) [compound 127] | “++” (≥20% = ++) |
| 128 (YLFDDPLSAV; listed as Homo sapiens) [compound 128] | “++” (≥20% = ++) |

| Substance | Peptide exchange (MHC class I binding score, peptide exchange yield) |
| --- | --- |
| 129 (GLLDGGVDILL; listed as Homo sapiens) [compound 129] | “+++” (≥50 = +++) |
| 130 (FLWNGEDSALL; listed as Homo sapiens) [compound 130] | “+++” (≥50 = +++) |
| 131 (FVPPVTVFPSL; listed as Homo sapiens) [compound 131] | “++” (≥20% = ++) |
| 132 (LLVEQPPLAGV; listed as Homo sapiens) [compound 132] | “+++” (≥50 = +++) |
| 133 (KVLSNIHTV; listed as Homo sapiens) [compound 133] | “++” (≥20% = ++) |
| 134 (YLQELIFSV; listed as Homo sapiens) [compound 134] | “+++” (≥50 = +++) |
| 135 (ALSEVDFQL; listed as Homo sapiens) [compound 135] | “+++” (≥50 = +++) |
| 136 (YLADPSNLFVV; listed as Homo sapiens) [compound 136] | “+++” (≥50 = +++) |
| 137 (TLVLTLPTV; listed as Homo sapiens) [compound 137] | “++++” (≥75% = ++++) |
| 138 (YQYPRAILSV; listed as Homo sapiens) [compound 138] | “+++” (≥50 = +++) |
| 139 (SVMEVNSGIYRV; listed as Homo sapiens) [compound 139] | “+++” (≥50 = +++) |
| 140 (YMDAPKAAL; listed as Homo sapiens) [compound 140] | “++” (≥20% = ++) |
| 141 (YLDFSNNRL; listed as Homo sapiens) [compound 141] | “++” (≥20% = ++) |
| 142 (FLFATPVFI; listed as Homo sapiens) [compound 142] | “+++” (≥50 = +++) |
| 143 (LLLDITPEI; listed as Homo sapiens) [compound 143] | “++++” (≥75% = ++++) |
| 144 (YIMEPSIFNTL; listed as Homo sapiens) [compound 144] | “+++” (≥50 = +++) |
| 145 (FLATSGTLAGI; listed as Homo sapiens) [compound 145] | “++” (≥20% = ++) |
| 146 (SLATAGDGLIEL; listed as Homo sapiens) [compound 146] | “++” (≥20% = ++) |
| 147 (SLLEAVSFL; listed as Homo sapiens) [compound 147] | “+++” (≥50 = +++) |

| Substance | Peptide exchange (MHC class I binding score, peptide exchange yield) |
| --- | --- |
| 148 (ALNPEIVSV; listed as Homo sapiens) [compound 148] | “++” (≥20% = ++) |
| 149 (NLLELFVQL; listed as Homo sapiens) [compound 149] | “+++” (≥50 = +++) |
| 150 (RLWEEGEELEL; listed as Homo sapiens) [compound 150] | “+++” (≥50 = +++) |
| 151 (KILQQLVTL; listed as Homo sapiens) [compound 151] | “+++” (≥50 = +++) |
| 152 (ILFEDIFDV; listed as Homo sapiens) [compound 152] | “+++” (≥50 = +++) |
| 153 (FLIANVLYL; listed as Homo sapiens) [compound 153] | “+” (≥10% = +) |
| 154 (ALDDGTPAL; listed as Homo sapiens) [compound 154] | “++” (≥20% = ++) |
| 155 (RVANLHFPSV; listed as Homo sapiens) [compound 155] | “+++” (≥50 = +++) |
| 157 (SLNDEVPEV; listed as Homo sapiens) [compound 157] | “++” (≥20% = ++) |
| 158 (KLFDVDEDGYI; listed as Homo sapiens) [compound 158] | “+++” (≥50 = +++) |
| 159 (GLVGNPLPSV; listed as Homo sapiens) [compound 159] | “++++” (≥75% = ++++) |
| 160 (FLFDEEIEQI; listed as Homo sapiens) [compound 160] | “+++” (≥50 = +++) |
| 161 (ALLEGVNTV; listed as Homo sapiens) [compound 161] | “+++” (≥50 = +++) |
| 162 (YQQAQVPSV; listed as Homo sapiens) [compound 162] | “+++” (≥50 = +++) |
| 163 (ALDEMGDLLQL; listed as Homo sapiens) [compound 163] | “+++” (≥50 = +++) |
| 164 (ALLPQPKNLTV; listed as Homo sapiens) [compound 164] | “+++” (≥50 = +++) |
| 165 (SLLDEIRAV; listed as Homo sapiens) [compound 165] | “+++” (≥50 = +++) |
| 166 (YLNHLEPPV; listed as Homo sapiens) [compound 166] | “+++” (≥50 = +++) |
